Among the data in the supplement of paper PMC12042874 are amyloid nucleation score values, retold here.

± gives the uncertainty stated by the source.

The nature of the data set: amyloid nucleation score (Sup35N fusion, yeast selection) (log enrichment); library NNK1; higher = more nucleation; inactive = no reads after selection. In short, it runs like this: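 Three technical output replicates were used for random libraries. Psi-negative yeast expressing peptides of 20 random codons fused to Sup35N were induced with 100 μM copper sulfate for 24 hours and grown 7 days at 30°C on medium lacking adenine and uracil, and input and output plasmid inserts were Illumina-sequenced, excluding sequences with under 100 input reads. The nucleation score is the DiMSum log enrichment of output over input reads, centred on the mode score of non-aggregating sequences.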
In the case of ISPVGIIMYQCSAWLTRFRS, the amyloid nucleation score turned out to be 0.204 ± 0.43. Regarding ISRISVSEEFKGCMGREWVT, the amyloid nucleation score came out at 1.1 ± 0.52. For ISSILFLQCLSWGGNR, the amyloid nucleation score came out at 5.38 ± 0.095. As for ISTSLSTGLGKLRESWLTYH, the amyloid nucleation score result was “inactive”. The substance ITDVMCMGGSTCFGNSGYTN yielded an amyloid nucleation score of 0.108 ± 0.56. With ITETSSSETMLLVVRTWEVW, the amyloid nucleation score turned out to be 0.332 ± 0.63. With ITGLVRLFC, the amyloid nucleation score stood at 0.134 ± 1. The substance ITKLIVSFQGFFV yielded an amyloid nucleation score of 4.24 ± 0.12. ITMWMPRILRVTITYDTRG came in with an amyloid nucleation score of 0.111 ± 1.2. For ITREVSL, the amyloid nucleation score was 1.36 ± 0.61. In the case of ITSRVQFRETHTYIMYLEAW it was 0.138 ± 0.43; in that of ITTIMTAVTVSPPQSMWFVS, 1.96 ± 0.25; in that of ITVYLMALVNNVCG, 3.38 ± 0.13.

The substance ITYMYGYCMDYF had an amyloid nucleation score of 0.439 ± 0.38. Substance ITYSLSIYSSRAICLYVWGG showed an amyloid nucleation score of -0.119 ± 0.62. Take ITYTGASR: the amyloid nucleation score was 0.295 ± 0.57. The same measure for IVCSGLCHIN: 7.08 ± 0.071; for IVDPWY: 2.56 ± 0.12; for IVFFQEDGSWAEWFVGEVLT: 0.557 ± 0.42. The same measure for IVGLQAVENIRNSCICLFMK: 4.5 ± 0.065. Regarding IVHIHGLQAANLAASWSANL, the amyloid nucleation score came to 2.68 ± 0.18. In the case of IVLFSPFTW it was -0.062 ± 0.31. IVLGYFRGIHFLGVLGMLIK: the amyloid nucleation score result was “inactive”. For the substance IVMQVLTQTVMWIFYLNGSH, the amyloid nucleation score is -0.254 ± 0.42. The same measure for IVMVVMSSFGINEHPPDNQN: 1.35 ± 0.27. Turning to IVNSKCRFWYYINGTVIFFL, the amyloid nucleation score was 6.331 ± 0.059. As to IVNVSCITNVDGGSLADSAV, the amyloid nucleation score stood at 2.48 ± 0.25.

Take IVPRAFIAWIAYQGRSPYGA: the amyloid nucleation score amounted to 0.619 ± 1.2. Turning to IVQIIPGVCCA, the amyloid nucleation score came out at 0.311 ± 1.2. Regarding IVSNAIIPTGEG, the amyloid nucleation score stood at 0.283 ± 0.71. Turning to IVTEVGGVVDEYARWPVGMT, the amyloid nucleation score was found to be 8.737 ± 0.05. The same measure for IVTRWY: -0.257 ± 0.21; for IVTSMSYNFLLKLMAGPQLR: 0.274 ± 0.67; for IVVKV: -0.035 ± 0.97.

In the case of IVYRPLAFVAVSCSESGHSV, the amyloid nucleation score was 4.56 ± 0.087.

The substance IWALKVWLRLTYCHICFRVV displayed an amyloid nucleation score of 0.265 ± 0.58. Turning to IWCSCAYRGVGMSTGFAIIY, the amyloid nucleation score was 1.13 ± 0.58.

Substance IWFLHHEVKF returned an amyloid nucleation score of 0.603 ± 0.58. In turn, IWLVQIHVSSSMPTSYPHIS registered an amyloid nucleation score of 0.355 ± 1.4. With IWRFIFGFGVYVCNGMALSQ, the amyloid nucleation score is 0.291 ± 0.53. In the case of IWTFRYVFRIFTCSDGTMVH it was -0.108 ± 0.42; in that of IYARNIRRLTRFPDLLDLVM, 1.47 ± 0.17. In the case of IYASLNVEICFADLPWSTWV it was 0.358 ± 0.81. Consider IYCEEFMLEMTSRIRV, for which the amyloid nucleation score is -0.976 ± 0.47. In the case of IYCYSYYLCSFLCVYDISKG it was -0.457 ± 0.79; in that of IYEMVGLTNVEFWYTKKYCS, -0.003 ± 0.18; in that of IYGDGNCIIFLMGQRP, 6.38 ± 0.085. As for IYGGYEK, the amyloid nucleation score was 0.626 ± 0.84.

Consider IYKVEFLTCFLDEGGWSPKV, for which the amyloid nucleation score is -0.692 ± 0.95. With IYNWH, the amyloid nucleation score amounted to 0.849 ± 0.66. In the case of IYRAHYAIYSAF it was -0.026 ± 0.64. The same measure for IYRSHRMPKSTRTLV: -1.16 ± 1.9; for IYRSMNRLVVQEGYAFIGGG: 2 ± 0.3; for IYVITVRPNVHNTLMHLIVT: 0.374 ± 0.73. Consider IYWCMM, for which the amyloid nucleation score was determined as 7.125 ± 0.057. Substance KAAGMGSCSYTMVNYTPDAG came in with an amyloid nucleation score of 1.39 ± 0.23.

Consider KAEVRVRARELAEGMGARGR, for which the amyloid nucleation score was 0.693 ± 0.72.

KAEYSDLASFGCHGHEEGGG displayed an amyloid nucleation score of 0.793 ± 1. The substance KAFIQTVLRNQVSWLANTPH displayed an amyloid nucleation score of -0.745 ± 0.98. In the case of KANFFTLRSMFWGPMN it was 1.15 ± 0.64; in that of KASCVVLAMLWLVLALGEPG, 0.116 ± 0.81; in that of KCFAFRSLAHIASTCGWCLN, 2.4 ± 0.31. Take KCIQGTGSLWD: the amyloid nucleation score was -0.128 ± 0.3. KCIWFMHDFCYMVLMR: the amyloid nucleation score is -0.164 ± 0.72. In the case of KDARLHFSWRL it was 0.933 ± 0.6.

As to KDLLMKV, the amyloid nucleation score amounted to 0.507 ± 0.64. In turn, KEILVGLPMGGVRGCGSSSG came in with an amyloid nucleation score of 0.505 ± 1.2. The substance KESLLLTQCGYYMGSAKMVW displayed an amyloid nucleation score of -1.03 ± 1.1. On to KETSGYRFYRMANLP, for which the amyloid nucleation score is -0.21 ± 1.2. KEWFYYLVDELCGGLCNPVR: the amyloid nucleation score worked out at 0.39 ± 1.2.

For the substance KEYGVSL, the amyloid nucleation score was -0.93 ± 0.55.

In turn, KEYNLLHDL gave an amyloid nucleation score of -0.691 ± 1.7. On to KFILTVPMANSATYTFACLD, for which the amyloid nucleation score result was “inactive”. Substance KFMVNVIV had an amyloid nucleation score of 1.24 ± 0.22. In turn, KFNDDRNGIATLQRHHIAGF yielded an amyloid nucleation score of -0.969 ± 0.71. With KFSCGTFSLRHPT, the amyloid nucleation score turned out to be 0.725 ± 0.52. The substance KFVYVVVMSMARACRNVPGH yielded an amyloid nucleation score of 0.272 ± 0.39. In turn, KFYYSLDVSSRCNFVLLEVE returned an amyloid nucleation score of 0.669 ± 0.65.

The substance KGAGMQTTQCVCKVYKLSWA displayed an amyloid nucleation score of 0.281 ± 0.24. With KGFVDNYVTVIVVWT, the amyloid nucleation score came to 1.64 ± 0.18. In the case of KGGPRPQMC it was -0.244 ± 0.27; in that of KGICRGRSLSVPESWAPFR, 0.133 ± 0.31. Substance KGMLLCYFPNKCPAWEAKCG yielded an amyloid nucleation score of 5.17 ± 0.059. On to KGRSNLIADFGDLFGGLYTY, for which the amyloid nucleation score is -0.57 ± 0.37. KGVCMTRHD returned an amyloid nucleation score of -0.136 ± 1.6. As to KHRLGQSMVSVRHYRFWGRI, the amyloid nucleation score is -0.437 ± 0.57.

For KIILPVSGVKINMQAWSRSH, the amyloid nucleation score turned out to be 4.07 ± 0.091. As to KIKLMF, the amyloid nucleation score is -0.416 ± 1.6. The same measure for KILRYSTTGSSELEWWNMRS: 0.069 ± 0.49; for KIRVDRFNIRSCDIGSDLCY: -1.07 ± 0.43; for KISVSTVLSLLFGI: 1.3 ± 0.76.

KKDTDRSIVFVSLYSPDSKA gave an amyloid nucleation score of -0.064 ± 0.5. KKFEVSL: the amyloid nucleation score was 0.159 ± 0.68. In the case of KKFFRVLLSLSSMLVLCCFQ it was -0.317 ± 1.4; in that of KKLNSCF, 0.533 ± 0.63. The same measure for KKVFFHKRVLSDARCKPVKS: -0.567 ± 0.41; for KKYLVNNYFLGFR: 0.127 ± 0.25; for KLAYKRSQMLTVVPRCSQGT: -0.39 ± 0.53. The same measure for KLDCMVDDICGTSGTVFLCL: 4.85 ± 0.061; for KLDGVVPDVYLSGRLPQAWL: 0.205 ± 0.86; for KLEGSARSGTTSRGSFSECV: 0.254 ± 0.38. KLIPCLLVITINLGHKATLS had an amyloid nucleation score of 0.482 ± 0.39. As to KLNVFDLVNRAKVGHCGSSG, the amyloid nucleation score stood at 0.026 ± 0.51. KLRIRSWKVFTPNSLLVVAI showed an amyloid nucleation score of -0.893 ± 1.1.

On to KLYGTRFPQFSRSVNEYC, for which the amyloid nucleation score is 0.111 ± 0.36.

In turn, KMLFGH came in with an amyloid nucleation score of -0.085 ± 0.79. KMLSMLTDRSFWLNHWSFFQ had an amyloid nucleation score of -0.573 ± 1.4. The same measure for KMSNCWLF: -0.881 ± 0.55; for KNCAAFLHRHGFEVAQRGTC: -0.337 ± 0.78; for KNDDTRFR: 0.358 ± 0.31. KNDGYIH displayed an amyloid nucleation score of -0.561 ± 1.4. In the case of KNVNAVR it was 0.173 ± 0.79; in that of KPDRQVANFRDWFG, -0.244 ± 1.2. KPWYFVISW showed an amyloid nucleation score of -0.007 ± 1.2.

In turn, KQSCWALSYVYMTSHVLSGG displayed an amyloid nucleation score of 0.495 ± 1.4. In the case of KRGNPMTHAFLWPVMSYVFR it was 0.295 ± 0.97; in that of KRMVCDVCIDVMPSEFKQAG, 1.02 ± 0.76; in that of KRSANVYRLRCLGGKMLHVN, 3.34 ± 0.081. Turning to KRWYTCYVYVFRICMRVLCR, the amyloid nucleation score was 0.731 ± 0.38. In turn, KSEDTSRFYTLMMSMYTQRF had an amyloid nucleation score of 1.76 ± 0.14. Regarding KSKRWELLPFEVRAARAVGQ, the amyloid nucleation score was -0.024 ± 0.3. In turn, KSLFNYCVFSDGL yielded an amyloid nucleation score of 7.281 ± 0.051.

KSQDKRYLSIPGCVLSFWGE returned an amyloid nucleation score of 0.069 ± 0.46. Substance KSQLRQSTYPS yielded an amyloid nucleation score of -0.358 ± 0.82. KSSSV came in with an amyloid nucleation score of -0.352 ± 0.6.

For KSSTKGLISRGRFGYRVPSN, the amyloid nucleation score was -0.215 ± 1.7. The same measure for KSTSQSYVIFFAQCFKYTTV: -0.592 ± 0.31. The same measure for KSYSMMMSMMGNRMWVKRLV: -0.02 ± 0.5; for KTCYLQ: -0.284 ± 1.1; for KTFYLWW: 3.04 ± 0.14.

KTGPAA displayed an amyloid nucleation score of -0.17 ± 0.73.

The substance KTRFMLVLKLKRDNDLKMRF yielded an amyloid nucleation score of -0.288 ± 0.3. In the case of KTWVYSRRRRCVRPGCCGDV it was 3.3 ± 0.16; in that of KVGLLWGT, 0.197 ± 0.93; in that of KVKANILVFLTKLSMRPTKP, 1.86 ± 0.29. The same measure for KVPDALFVDRLLYQVISCIH: 3.47 ± 0.084; for KVVRAACCQKMFERVGVHGG: -0.842 ± 0.94. The same measure for KVYYYKPLIRNPTSFLITIL: 0.817 ± 0.47. KWRNLSS had an amyloid nucleation score of 0.631 ± 0.89. KWVWDLMMVDSGLRLSSHVL: the amyloid nucleation score amounted to 0.026 ± 0.35. The substance KYEMRITVGRGYFSGRMHAC registered an amyloid nucleation score of 0.494 ± 0.78. As for KYKVVI, the amyloid nucleation score was -0.289 ± 0.24.
